Assay results published in the nanobody polyreactivity screen of Harvey et al. (2022).

assay: yeast display, Sf9 membrane polyspecificity reagent, FACS + sequencing; frameworks hold sequencing errors
Procedure, shortened: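 A nanobody's polyreactivity label depends on the gate it was sorted from. Yeast display cells were stained with 10% biotinylated, detergent-solubilized Sf9 membrane reagent for 1 hour at 4 °C, enriched on streptavidin microbeads and sorted by FACS. The low and high (top ~1%) gates were set on anti-HA fluorescence for expression and streptavidin fluorescence for reagent binding.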

Row | Sequence | polyreactivity (PSR sort gate)
1 | QDQLVESGGGLVQAGGSLRLSCAASASTFPYNPMGRYRQAPRKERELVAAITATDDSTYYADSVKGRFTISRDNAKNTVYLQMNSLKPEDTAVYYCAADFGGYVFYFGYDYWGQGTQVTVSS | low polyreactivity
2 | QDQLVESGGGLVQAGGSLRLSCAASGFIFAYNAMGWYRQGPGKESELVAGITWNGGSTYYADSVKGRFTISRDNAKNSVYLQMNRLKPEETAVYYCAARRTWGYIYRLGYGMDYWGQGTQVTVSS | high polyreactivity
3 | QDQLVESGGGLVQAGGSLRLSCAASGFIFDLYAMGWYRQAPGKERELVAVISYDGGSTYYADSVKGRFTISRDNAKNTVYLQMNSLKPVDTAVYYCNTYAGLVSPSDLYDYWGQGTQVTVSS | low polyreactivity
4 | QDQLVESGGGLVQAGGSLRLSCAASGFIFDQYAMGWYRQPPGKERELVAAITSGGDTNYADSVKGRFTISRDNAKNTVYLQMNSLKPEDTAVYYCNAAARGSSFDYWGQGTQVTVSS | low polyreactivity
5 | QDQLVESGGGLVQAGGSLRLSCAASGFIFGLNAMGWYRQAPGKERELVASISRRCGSTYYAYSVKGRFTISRDNAKNTVYLQMNSLKPEDTAVYYCASDTLGGTSLGDYWGQGIQVTVSS | high polyreactivity
6 | QDQLVESGGGLVQAGGSLRLSCAASGFIFGTYAMGWYRQAPGKEREFVAAINWGGGRTYYADSVKGRFTISRDNAKNTVYLQMNSLKPEDTAVYYCAADFGLYYPRYGYWGQGTQVTVSS | high polyreactivity
7 | QDQLVESGGGLVQAGGSLRLSCAASGFIFNYYGMGWYRQAPGKERELVATISRGASTNYADSVKGRFTISRDNAKNTVYLQMNSLKPEDTAVYYCAKDYGDWGQGTQVTVSS | low polyreactivity
8 | QDQLVESGGGLVQAGGSLRLSCAASGFIFSQYAMGWYRHAPGKERELVAAISTSGGSTYYADSVKGRFTISRDNAKNTVYLQMNSLKPEDTAVYYCAAARITRGRRYDYWGQGTQVTVSS | high polyreactivity
9 | QDQLVESGGGLVQAGGSLRLSCAASGFILNWYAMGVYRQAPGKERELVAAISWTTSDTYYADSVKGRFTISRDYAKNTVYLQMNSLKPEDTAVYYCNAKFYAYYVTFVLHYDYWGHGTQVTVSS | low polyreactivity
10 | QDQLVESGGGLVQAGGSLRLSCAASGFTFRANAMGWYRQAPGKERELVAAISSGGRTNYADSVKGRFTISRDNAKNTVYLQMNSLKTEDTAVYYCAAAPSKWYYGYGYWGQGTQVTVSS | high polyreactivity
11 | QDQLVESGGGLVQAGGSLRLSCAASGFTFSRYAMGWYRQAPGKERELVAAINYSGGSTYYADSVKGRFTISRDNAKNTVYLQMNSLKPEDTAVYYCATGGTKPAYKGHYYWGQGTQVTVSS | low polyreactivity
12 | QDQLVESGGGLVQAGGSLRLSCAASGFTFVINDMGWYRQAPGKERELVADITSGGDTYYADSVKGRFTISRDNAKNTDYLQMNSLKPEDTAVYYCAADIYPDWIYLLYGYWGQGTQVTVSS | low polyreactivity
13 | QDQLVESGGGLVQAGGSLRLSCAASGFTFVINDMGWYRQAPGKEREMVADITSGGDTYYADSVKGRFTISRDNAKNTVDLQMNSLKPEDTAVYYCAADIYPDWIYLLYGYWGQGTQVSVSS | low polyreactivity
14 | QDQLVESGGGLVQAGGSLRLSCAASGFTFYAYAMGWYRQAPGKERELVAAITGRGGSTYYADSVKGRFTISRDNAKNTVYLPLNSLKPEDTAVYDCNKVKKSDKFNTVSNDYWGQGTQVTVSS | high polyreactivity
15 | QDQLVESGGGLVQAGGSLRLSCAASGFTISSYARGWYRQAPGKERELVAAISTRGGSTYYADSVKGRFTISRDNSKNTVYLQMNSLKPEDTAVSYCATGGRGGRRYEYWGQGTQVTVSS | low polyreactivity
16 | QDQLVESGGGLVQAGGSLRLSCAASGGIFLYYSMGWYRQAPGKERELVAAISRGGGRTYYADSVKGRFTISRDNAKNTVYLHMNSLKPEDTAVYYCAVEYGTGYQWWEYYYWGQGTQVTVSS | high polyreactivity
17 | QDQLVESGGGLVQAGGSLRLSCAASGGIFPVNALGWYRQAPVKERELVATITYDGGNTYYADSVKGRFTISRDNAKKTVYLQMNSLKREDTAVYYCAKDSLSFYGYISYIGYGYDYWGQGTQVTVSS | low polyreactivity
